Results as given in publication PMC11574045, “A cofactor-induced repressive type of transcription factor condensation can be induced by synthetic peptides to suppress tumorigenesis” (The EMBO Journal, 2024).

B1: GTF2IRD1 (protein, UniProt Q9UHL9 1-959, looked up)
General transcription factor …: MALLGKRCDVPTNGCGPDRWNSAFTRKDEIITSLVSALDSMCSALSKLNAEVACVAVHDESAFVVGTEKGRMFLNARKELQSDFLRFCRGPPWKDPEAEHPKKVQRGEGGGRSLPRSSLEHGSDVYLLRKMVEEVFDVLYSEALGRASVVPLPYERLLREPGLLAVQGLPEGLAFRRPAEYDPKALMAILEHSHRIRFKLKRPLEDGGRDSKALVELNGVSLIPKGSRDCGLHGQAPKVPPQDLPPTATSSSMASFLYSTALPNHAIRELKQEAPSCPLAPSDLGLSRPMPEPKATGAQDFSDCCGQKPTGPGGPLIQNVHASKRILFSIVHDKSEKWDAFIKETEDINTLRECVQILFNSRYAEALGLDHMVPVPYRKIACDPEAVEIVGIPDKIPFKRPCTYGVPKLKRILEERHSIHFIIKRMFDERIFTGNKFTKDTTKLEPASPPEDTSAEVSRATVLDLAGNARSDKGSMSEDCGPGTSGELGGLRPIKIEPEDLDIIQVTVPDPSPTSEEMTDSMPGHLPSEDSGYGMEMLTDKGLSEDARPEERPVEDSHGDVIRPLRKQVELLFNTRYAKAIGISEPVKVPYSKFLMHPEELFVVGLPEGISLRRPNCFGIAKLRKILEASNSIQFVIKRPELLTEGVKEPIMDSQGTASSLGFSPPALPPERDSGDPLVDESLKRQGFQENYDARLSRIDIANTLREQVQDLFNKKYGEALGIKYPVQVPYKRIKSNPGSVIIEGLPPGIPFRKPCTFGSQNLERILAVADKIKFTVTRPFQGLIPKPDEDDANRLGEKVILREQVKELFNEKYGEALGLNRPVLVPYKLIRDSPDAVEVTGLPDDIPFRNPNTYDIHRLEKILKAREHVRMVIINQLQPFAEICNDAKVPAKDSSIPKRKRKRVSEGNSVSSSSSSSSSSSSNPDSVASANQISLVQWPMYMVDYAGLNVQLPGPLNY
B2: GLIS3 (protein, UniProt Q8NEA6 1-775, looked up)
Zinc finger protein GLIS3: MMVQRLGLISPPASQVSTACNQISPSLQRAMNAANLNIPPSDTRSLISRESLASTTLSLTESQSASSMKQEWSQGYRALPSLSNHGSQNGLDLGDLLSLPPGTSMSSNSVSNSLPSYLFGTESSHSPYPSPRHSSTRSHSARSKKRALSLSPLSDGIGIDFNTIIRTSPTSLVAYINGSRASPANLSPQPEVYGHFLGVRGSCIPQPRPVPGSQKGVLVAPGGLALPAYGEDGALEHERMQQLEHGGLQPGLVNHMVVQHGLPGPDSQSAGLFKTERLEEFPGSTVDLPPAPPLPPLPPPPGPPPPYHAHAHLHHPELGPHAQQLALPQATLDDDGEMDGIGGKHCCRWIDCSALYDQQEELVRHIEKVHIDQRKGEDFTCFWAGCPRRYKPFNARYKLLIHMRVHSGEKPNKCTFEGCEKAFSRLENLKIHLRSHTGEKPYLCQHPGCQKAFSNSSDRAKHQRTHLDTKPYACQIPGCTKRYTDPSSLRKHVKAHSSKEQQARKKLRSSTELHPDLLTDCLTVQSLQPATSPRDAAAEGTVGRSPGPGPDLYSAPIFSSNYSSRSGTAAGAVPPPHPVSHPSPGHNVQGSPHNPSSQLPPLTAVDAGAERFAPSAPSPHHISPRRVPAPSSILQRTQPPYTQQPSGSHLKSYQPETNSSFQPNGIHVHGFYGQLQKFCPPHYPDSQRIVPPVSSCSVVPSFEDCLVPTSMGQASFDVFHRAFSTHSGITVYDLPSSSSSLFGESLRSGAEDATFLQISTVDRCPSQLSSVYTEG
B3: HDAC8 (protein, UniProt Q9BY41 1-377, looked up)
Histone deacetylase 8: MEEPEEPADSGQSLVPVYIYSPEYVSMCDSLAKIPKRASMVHSLIEAYALHKQMRIVKPKVASMEEMATFHTDAYLQHLQKVSQEGDDDHPDSIEYGLGYDCPATEGIFDYAAAIGGATITAAQCLIDGMCKVAINWSGGWHHAKKDEASGFCYLNDAVLGILRLRRKFERILYVDLDLHHGDGVEDAFSFTSKVMTVSLHKFSPGFFPGTGDVSDVGLGKGRYYSVNVPIQDGIQDEKYYQICESVLKEVYQAFNPKAVVLQLGADTIAGDPMCSFNMTPVGIGKCLKYILQWQLATLILGGGGYNLANTARCWTYLTGVILGKTLSSEIPDHEFFTAYGPDYVLEITPSCRPDRNEPHRIQQILNYIKGNLKHVV
B4: GTF2A1L (protein, UniProt Q9UNN4 1-478, looked up)
TFIIA-alpha and beta-like …: MACLNPVPKLYRSVIEDVIEGVRNLFAEEGIEEQVLKDLKQLWETKVLQSKATEDFFRNSIQSPLFTLQLPHSLHQTLQSSTASLVIPAGRTLPSFTTAELGTSNSSANFTFPGYPIHVPAGVTLQTVSGHLYKVNVPIMVTETSGRAGILQHPIQQVFQQLGQPSVIQTSVPQLNPWSLQATTEKSQRIETVLQQPAILPSGPVDRKHLENATSDILVSPGNEHKIVPEALLCHQESSHYISLPGVVFSPQVSQTNSNVESVLSGSASMAQNLHDESLSTSPHGALHQHVTDIQLHILKNRMYGCDSVKQPRNIEEPSNIPVSEKDSNSQVDLSIRVTDDDIGEIIQVDGSGDTSSNEEIGSTRDADENEFLGNIDGGDLKVPEEEADSISNEDSATNSSDNEDPQVNIVEEDPLNSGDDVSEQDVPDLFDTDNVIVCQYDKIHRSKNKWKFYLKDGVMCFGGRDYVFAKAIGDAEW
B5: GPS2 (protein, UniProt Q13227 1-327, looked up)
G protein pathway suppressor 2: MPALLERPKLSNAMARALHRHIMMERERKRQEEEEVDKMMEQKMKEEQERRKKKEMEERMSLEETKEQILKLEEKLLALQEEKHQLFLQLKKVLHEEEKRRRKEQSDLTTLTSAAYQQSLTVHTGTHLLSMQGSPGGHNRPGTLMAADRAKQMFGPQVLTTRHYVGSAAAFAGTPEHGQFQGSPGGAYGTAQPPPHYGPTQPAYSPSQQLRAPSAFPAVQYLSQPQPQPYAVHGHFQPTQTGFLQPGGALSLQKQMEHANQQTGFSDSSSLRPMHPQALHPAPGLLASPQLPVQMQPAGKSGFAATSQPGPRLPFIQHSQNPRFYHK
B6: HDAC11 (protein, UniProt Q96DB2 1-347, looked up)
Histone deacetylase 11: MLHTTQLYQHVPETRWPIVYSPRYNITFMGLEKLHPFDAGKWGKVINFLKEEKLLSDSMLVEAREASEEDLLVVHTRRYLNELKWSFAVATITEIPPVIFLPNFLVQRKVLRPLRTQTGGTIMAGKLAVERGWAINVGGGFHHCSSDRGGGFCAYADITLAIKFLFERVEGISRATIIDLDAHQGNGHERDFMDDKRVYIMDVYNRHIYPGDRFAKQAIRRKVELEWGTEDDEYLDKVERNIKKSLQEHLPDVVVYNAGTDILEGDRLGGLSISPAGIVKRDELVFRMVRGRRVPILMVTSGGYQKRTARIIADSILNLFGLGLIGPESPSVSAQNSDTPLLPPAVP
B7: GTF2I (protein, UniProt P78347 2-998, looked up)
General transcription factor …: AQVAMSTLPVEDEESSESRMVVTFLMSALESMCKELAKSKAEVACIAVYETDVFVVGTERGRAFVNTRKDFQKDFVKYCVEEEEKAAEMHKMKSTTQANRMSVDAVEIETLRKTVEDYFCFCYGKALGKSTVVPVPYEKMLRDQSAVVVQGLPEGVAFKHPENYDLATLKWILENKAGISFIIKRPFLEPKKHVGGRVMVTDADRSILSPGGSCGPIKVKTEPTEDSGISLEMAAVTVKEESEDPDYYQYNIQAGPSETDDVDEKQPLSKPLQGSHHSSEGNEGTEMEVPAEDSTQHVPSETSEDPEVEVTIEDDDYSPPSKRPKANELPQPPVPEPANAGKRKVREFNFEKWNARITDLRKQVEELFERKYAQAIKAKGPVTIPYPLFQSHVEDLYVEGLPEGIPFRRPSTYGIPRLERILLAKERIRFVIKKHELLNSTREDLQLDKPASGVKEEWYARITKLRKMVDQLFCKKFAEALGSTEAKAVPYQKFEAHPNDLYVEGLPENIPFRSPSWYGIPRLEKIIQVGNRIKFVIKRPELLTHSTTEVTQPRTNTPVKEDWNVRITKLRKQVEEIFNLKFAQALGLTEAVKVPYPVFESNPEFLYVEGLPEGIPFRSPTWFGIPRLERIVRGSNKIKFVVKKPELVISYLPPGMASKINTKALQSPKRPRSPGSNSKVPEIEVTVEGPNNNNPQTSAVRTPTQTNGSNVPFKPRGREFSFEAWNAKITDLKQKVENLFNEKCGEALGLKQAVKVPFALFESFPEDFYVEGLPEGVPFRRPSTFGIPRLEKILRNKAKIKFIIKKPEMFETAIKESTSSKSPPRKINSSPNVNTTASGVEDLNIIQVTIPDDDNERLSKVEKARQLREQVNDLFSRKFGEAIGMGFPVKVPYRKITINPGCVVVDGMPPGVSFKAPSYLEISSMRRILDSAEFIKFTVIRPFPGLVINNQLVDQSESEGPVIQESAEPSQLEVPATEEIKETDGSSQIKQEPDPTW
B8: HAND1 (protein, UniProt O96004 1-215, looked up)
Heart- and neural crest …: MNLVGSYAHHHHHHHPHPAHPMLHEPFLFGPASRCHQERPYFQSWLLSPADAAPDFPAGGPPPAAAAAATAYGPDARPGQSPGRLEALGGRLGRRKGSGPKKERRRTESINSAFAELRECIPNVPADTKLSKIKTLRLATSYIAYLMDVLAKDAQSGDPEAFKAELKKADGGRESKRKRELQQHEGFPPALGPVEKRIKGRTGWPQQVWALELNQ
B9: GMNN (protein, UniProt O75496 1-209, looked up)
Geminin: MNPSMKQKQEEIKENIKNSSVPRRTLKMIQPSASGSLVGRENELSAGLSKRKHRNDHLTSTTSSPGVIVPESSENKNLGGVTQESFDLMIKENPSSQYWKEVAEKRRKALYEALKENEKLHKEIEQKDNEIARLKKENKELAEVAEHVQYMAELIERLNGEPLDNFESLDNQEFDSEEETVEDSLVEDSEIGTCAEGTVSSSTDAKPCI
B10: GTF2A1 (protein, UniProt P52655 2-376, looked up)
Transcription initiation …: ANSANTNTVPKLYRSVIEDVINDVRDIFLDDGVDEQVLMELKTLWENKLMQSRAVDGFHSEEQQLLLQVQQQHQPQQQQHHHHHHHQQAQPQQTVPQQAQTQQVLIPASQQATAPQVIVPDSKLIQHMNASNMSAAATAATLALPAGVTPVQQILTNSGQLLQVVRAANGAQYIFQPQQSVVLQQQVIPQMQPGGVQAPVIQQVLAPLPGGISPQTGVIIQPQQILFTGNKTQVIPTTVAAPTPAQAQITATGQQQPQAQPAQTQAPLVLQVDGTGDTSSEEDEDEEEDYDDDEEEDKEKDGAEDGQVEEEPLNSEDDVSDEEGQELFDTENVVVCQYDKIHRSKNKWKFHLKDGIMNLNGRDYIFSKAIGDAEW
B11: GRHL3 (protein, UniProt Q8TE85 1-626, looked up)
Grainyhead-like protein 3 …: MSNELDFRSVRLLKNDPVNLQKFSYTSEDEAWKTYLENPLTAATKAMMRVNGDDDSVAALSFLYDYYMGPKEKRILSSSTGGRNDQGKRYYHGMEYETDLTPLESPTHLMKFLTENVSGTPEYPDLLKKNNLMSLEGALPTPGKAAPLPAGPSKLEAGSVDSYLLPTTDMYDNGSLNSLFESIHGVPPTQRWQPDSTFKDDPQESMLFPDILKTSPEPPCPEDYPSLKSDFEYTLGSPKAIHIKSGESPMAYLNKGQFYPVTLRTPAGGKGLALSSNKVKSVVMVVFDNEKVPVEQLRFWKHWHSRQPTAKQRVIDVADCKENFNTVEHIEEVAYNALSFVWNVNEEAKVFIGVNCLSTDFSSQKGVKGVPLNLQIDTYDCGLGTERLVHRAVCQIKIFCDKGAERKMRDDERKQFRRKVKCPDSSNSGVKGCLLSGFRGNETTYLRPETDLETPPVLFIPNVHFSSLQRSGGAAPSAGPSSSNRLPLKRTCSPFTEEFEPLPSKQAKEGDLQRVLLYVRRETEEVFDALMLKTPDLKGLRNAISEKYGFPEENIYKVYKKCKRGETSLLHPRLSRHPPPDCLECSHPVTQVRNMGFGDGFWRQRDLDSNPSPTTVNSLHFTVNSE

system: HEK293FT cells transfected with TF library; experiment: Screening of TF condensates based on fluorescent puncta; type: cell-based; conditions: Figure 1B numerical data; TF library screen, one value per transcriptional factor
Summary of the method: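 Each TF construct was introduced into HEK293FT cells using PEI at 4.8 μg/ml; glucose deprivation versus normal medium lasted 12 h. Automated confocal-style imaging of tagged TF staining, 50 fields per well, gave the puncta data.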

Molecule | Z score of condensed fraction
B1 | -0.874
B2 | 0.8153
B3 | 0.9737
B4 | 3.206
B5 | -0.6135
B6 | 0.2732
B7 | 0.02684
B8 | -0.3888
B9 | 0.2471
B10 | 0.06864
B11 | -0.6859
